Test results published in patent US20090291895A1 (published 2009).

B1: mouse MIP-1alpha (ligand)
chain: APYGADTPTACCFSYSRKIPRQFIVDYFETSSLCSQPGVIFLTKRNRQICADSKETWVQEYITDLELNA
B2: mouse MCP-1 (ligand)
chain: not shown
B3: purified recombinant 6x-histidine tagged rhesus MIP-1alpha (ligand)
chain: ADTPTSCCFSYISRQIPQNFIADYFETNSQCSKPGVIFLTKRGRQVCADPSKEWVQKYVSDLELSAHHHHHH
notes: also called rhMIP-1α; rhMIP1α

Tests used:
[1] = target: T1, purified recombinant MPV vCCI (monkeypox virus viral CC-chemokine inhibitor, product of MPV ORF-[cha (monkeypox virus, UniProt P0DTM9 17-246)); experiment: mobility shift assay
[2] = target: T1, purified recombinant MPV vCCI …; experiment: native PAGE mobility shift (1:1 molar ratio); co-immunoprecipitation

Binder	binding result [1]	binding result [2]
B1	binds	
B2	binds	
B3		binds
